The source of these data is patent US20260250363A1 (AP BIOSCIENCES, published 2026).

Like-named read-outs stand apart in the source and are kept apart here.

Test [1] addresses T1, SARS-CoV-2 Spike Protein, wild type (R&D, Cat. #10549-CV) (SARS-CoV-2, UniProt P0DTC2 16-1211). Put plainly: competition ELISA: blocks biotin-ACE2 binding to coated spike.
Test [2] has as its target T2, SARS-CoV-2 C.37 Spike His Protein (R&D, Cat. #10887-CV) (SARS-CoV-2, UniProt P0DTC2 16-1211). The description is as above.
Test [3] has as its target T2, SARS-CoV-2 C.37 Spike His Protein (R&D, …). Briefly: direct ELISA on coated spike.
Test [4] has as its target T1, SARS-CoV-2 Spike Protein, wild type …. Put plainly: competition ELISA: blocks biotin-ACE2 binding to coated spike. The source holds these as a separate data set.
Test [5] has as its target T2, SARS-CoV-2 C.37 Spike His Protein (R&D, …). Described as above. The source holds these as a separate data set.
Test [6] deals with T3, SARS-CoV-2 AY.1 Spike Protein (R&D, Cat. #10922-CV) (SARS-CoV-2, UniProt P0DTC2 16-1211). Described as above.
In test [7] the target is T1, SARS-CoV-2 Spike Protein, wild type …. Put plainly: direct ELISA on coated spike.
The target of test [8] is T3, SARS-CoV-2 AY.1 Spike Protein (R&D, …). Put plainly: competition ELISA: blocks biotin-ACE2 binding to coated spike. This is another data set of the same source.
For test [9] the target is unchanged. Briefly: direct ELISA on coated spike.
Test [10] addresses T2, SARS-CoV-2 C.37 Spike His Protein (R&D, …). Briefly: BLI (ForteBio), mAb on AHC sensor, spike in solution.
For test [11], the target named is T1, SARS-CoV-2 Spike Protein, wild type …. The test is described as above.
Test [12] deals with T3, SARS-CoV-2 AY.1 Spike Protein (R&D, …). The test is described as above.
In test [13] the target is T4, SARS-CoV-2 C.37 Spike His Protein (R&D, Cat. #10887-CV) (SARS-CoV-2, UniProt P0DTC2 16-1211).
In test [14] the target is T5, SARS-CoV-2 B.1.1.529 Spike Protein (Omicron) (SARS-CoV-2, UniProt P0DTC2 16-1211). Briefly: competition ELISA: blocks biotin-ACE2 binding to coated spike.
Test [15] addresses T4, SARS-CoV-2 C.37 Spike His Protein (R&D, …). Put plainly: direct ELISA on coated spike. The source holds these as a separate data set.
Test [16] has as its target T6, SARS-CoV-2 B.1.617.2 Spike Protein (R&D, Cat. #10878-CV) (SARS-CoV-2, UniProt P0DTC2 16-1211). Briefly: direct ELISA on coated spike.
Test [17] concerns the target T7, SARS-CoV-2 AY.1 Spike Protein (R&D, Cat. #10922-CV) (SARS-CoV-2, UniProt P0DTC2 16-1211). Put plainly: competition ELISA: blocks biotin-ACE2 binding to coated spike. The source holds these as a separate data set.
The target of test [18] is T8, SARS-CoV-2 Spike Protein, wild type (R&D, Cat. #10549-CV) (SARS-CoV-2, UniProt P0DTC2 16-1211). Briefly: direct ELISA on coated spike. The source holds these as a separate data set.
Test [19] addresses T6, SARS-CoV-2 B.1.617.2 Spike Protein …. Put plainly: competition ELISA: blocks biotin-ACE2 binding to coated spike.
In test [20] the target is T8, SARS-CoV-2 Spike Protein, wild type ….
Test [21] addresses T5, SARS-CoV-2 B.1.1.529 Spike Protein …. Put plainly: direct ELISA on coated spike.
Test [22] has as its target T7, SARS-CoV-2 AY.1 Spike Protein (R&D, …). Put plainly: direct ELISA on coated spike. This is another data set of the same source.
Test [23] has as its target SARS-CoV-2 Spike Trimer, His Tag (BA.4/Omicron) (MALS verified) (AcroBiosystems, SPN-C5229) (SARS-CoV-2, UniProt P0DTC2 16-1213). Briefly: BLI (ForteBio), mAb on AHC sensor, spike in solution.
Test [24] has as its target T5, SARS-CoV-2 B.1.1.529 Spike Protein …. The description is as above.
The target of test [25] is T8, SARS-CoV-2 Spike Protein, wild type …. Described as above. This is another data set of the same source.
Test [26] has as its target Recombinant SARS-CoV-2 BA.2 Spike (GCN4-IZ) His Protein, CF (R&D, 11109-CV) (SARS-CoV-2, UniProt P0DTC2 16-1211). The test is described as above.
The target in test [27] is SARS-CoV-2 Spike Trimer, His Tag (BA.5/Omicron) (MALS verified) (AcroBiosystems, SPN-C522e) (SARS-CoV-2, UniProt P0DTC2 16-1213). The test is described as above.
The target of test [28] is T4, SARS-CoV-2 C.37 Spike His Protein (R&D, …). The description is as above. This is another data set of the same source.
Test [29] has as its target T7, SARS-CoV-2 AY.1 Spike Protein (R&D, …). The test is described as above. This is another data set of the same source.
For test [30], the target named is T6, SARS-CoV-2 B.1.617.2 Spike Protein …. The description is as above.
In test [31] the target is T5, SARS-CoV-2 B.1.1.529 Spike Protein …. Briefly: direct ELISA on coated spike, single dose (axis label 30nm).
Test [32] shares this target.
The target in test [33] is T8, SARS-CoV-2 Spike Protein, wild type …. Put plainly: competition ELISA: blocks biotin-ACE2 binding to coated spike. The source holds these as a separate data set.
The target in test [34] is T6, SARS-CoV-2 B.1.617.2 Spike Protein …. The description is as above. The source holds these as a separate data set.
The target in test [35] is T4, SARS-CoV-2 C.37 Spike His Protein (R&D, …). Described as above. This is another data set of the same source.
The target of test [36] is T5, SARS-CoV-2 B.1.1.529 Spike Protein …. This is another data set of the same source.

B1: Imdevimab (antibody, V domains shown)
VH: QVQLVESGGGVVQPGRSLRLSCAASGFTFSNYAMYWVRQAPGKGLEWVAVISYDGSNKYYADSVKGRFTISRDNSKNTLYLQMNSLRTEDTAVYYCASGSDYGDYLLVYWGQGTLVTVSS
VL: QSALTQPASVSGSPGQSITISCTGTSSDVGGYNYVSWYQQHPGKAPKLMIYDVSKRPSGVSNRFSGSKSGNTASLTISGLQSEDEADYYCNSLTSISTWVFGGGTKLTVLG
Take B1: the IC50 in test [1] was 4.85 nM; in test [2], 3.25 nM; in test [4], 4.82 nM; in test [5], 3.77 nM; in test [6], 1.18 nM; in test [8], 0.697 nM. In addition, the half-maximal effective concentration (EC50) in test [3] stood at 0.0734 nM; in test [7] it was 0.0681 nM; in [9], 0.0642 nM. Moreover, the Kd in [10] was determined as 0.563 nM; in [11], 2.32 nM; in test [12], 0.305 nM.

B2: anti-SARS-CoV-2 antibody clone R4-1a-10 (antibody, V domains shown)
VH: QVQLQQWGAGLLKPSETLSLTCAVYGGSFSGNYWSWIRQPPGKGLEWIGEINHSGSTNYNPSLKSRVTISVDTSKNQFSLKLSSVTAADTAVYYCARGLLDYWGQGTLVTVSS
VL: QSVLTQPSSVSAAPWQRVTISCSGSDSNIGNNPVNWYQHVPGKAPTLLIYYDNFLASKISDRFSGSKSGTSASLAISGLQSDDEADYYCASWDDSLNGVVFGGGTKLTVLR
For the molecule B2, the IC50 in test [13] was 73.8 nM; in [14], 1.86 nM; in [17], 0.738 nM; in [19], 2.12 nM; in test [20], 77 nM. Moreover, the EC50 turned out to be 1.99 nM in test [15]; 0.0369 nM in test [16]; 0.479 nM in test [18]; 0.0806 nM in test [21]; 0.0407 nM in test [22]. For the same molecule, the dissociation constant Kd in test [23] was 6.86 nM; in test [24] it was 0.571 nM; in test [25], 1.87 nM; in test [26], 3.23 nM; in test [27], 7.86 nM; in test [28], 1.01 nM. Further, the Kd is 1.79 nM in test [29] and 2.34 nM in test [30].

B3: anti-SARS-CoV-2 antibody clone R3-1a-1 (antibody, V domains shown)
VH: QVQLVQSGAEVKKPGSSVKVSCKASGGTFSSYAISWVRQAPGQGLEWMGGIIPILGIANYAQKFQGRVTITADKSTSTAYMELSSLRSEDTAVYYCARDGGGSSGYHDYWGQGTLVTVSS
VL: NFMLTQPHSVSESPGKTVTISCTRSSGSIASKYVQWYQQRPGNSPTTVIYEDDQRPSGVPDRFSASIDSSANTASLTISGLKPEDEADYYCQSYDDNTAVFGGGTHLTVLG
As to B3, in test [31], the binding result is “no binding (tested: 30 nM (printed 30nm))”. Besides, the figures for the equilibrium dissociation constant (Kd) in test [23], in test [26] and in test [27] were 10.3 nM, 4.36 nM and 12.5 nM, respectively.

B4: anti-SARS-CoV-2 antibody clone R4-11 (antibody, V domains shown)
VH: QVQLVQSGAEVKKPGSSVKVSCKASGGAFSSYAISWVRQAPGQGLEWMGRIIPILGIANYAQKFQGRVTITADKSTSTAYMELSSLRSEDTAVYYCAGGSGYYYWGQGTTVTVSS
VL: QSVLTQPPSVSEAPGQRVTISCSGSSSNIANNAVNWYQQLPGQAPKLLIFYDDLLPSWVSDRFSGSKSGTSASLAISGLQSEDEADYYCAAWDDSLNGPVFGGGTKLTVLR
In the case of B4, the EC50 in test [32] was found to be 100 nM; in [15], 0.0677 nM; in test [16] it was 0.0559 nM; in [18], 0.0622 nM; in test [22] it was 0.0905 nM. In addition, the concentration for half-maximal inhibition (IC50) in test [33] amounted to 3.99 nM; in test [34], 1.14 nM; in [35], 1.8 nM; in test [17], 0.787 nM; in test [36] it was 24 nM. Also, the Kd in test [24] stood at 7.93 nM; in test [25], 4.05 nM; in test [28] it was 1.23 nM; in test [29] it was 2.29 nM; in test [30], 1.53 nM.
